From patent US20060141546A1, “Bacterial test method by glycated label binding” (priority 2002, published 2006)

Legend:
[1] = system: gram negative and positive bacteria; experiment: Bacteria assay by binding of intestinal ALP, all strains (Example 1); conditions: for ALP binding to bacterial strains tested: FIG. 8, Table 1
Description: (§1) Bacterial cells ([…] to 10^8 cells/mL) were washed twice with water after centrifugation to separate the cells into a packed pellet from supernatant liquid. The washed cells in pellet form were suspended in 40 μL water and 10 μL of aqueous bovine intestinal alkaline phosphatase (ALP) was added (2 μg or […]). The mixture was left at room temperature for 30 minutes and then centrifuged, after which the bacterial pellets were washed with water 4-5 times (50 μL). All the washing supernatants were combined. A blank without cells was diluted in the same way. The final pellets were suspended in 50 μl water and both supernatants and cell suspensions were assayed for detection of ALP binding using 2.5 μl of 0.005 M para-nitrophenol phosphate (PNPP) in Tris or EPPS buffer at pH 7.5. The hydrolysis of the substrate results in yellow (PNPP) or blue-green (BCIP) color that is directly proportional to the amount of ALP bound to the bacteria. Alkaline phosphatase (ALP) activity was tested using common substrates such as BCIP (bromo-chloro-indolyl-phosphate) forming a blue/green color in Tris buffer, pH 7.5. After 10 minutes at room temperature the samples were read in a plate reader (Biotek Powerwave Absorbance Reader) at a wavelength of 405 nm. The parallel set of bacteria was run without addition of ALP as controls.
(§2) The bacteria used to illustrate the invention represent the extremes of gram positive (S. facaelis) and gram negative (E. coli) bacteria. […] The nature of the difference in the cell walls is greatest between the gram negative and positive forms of bacteria.

[2] = system: bacteria; experiment: Effect of divalent cations on ALP binding to bacteria (Example 7, Table 5, FIG. 12)
Description: Bacterial cells (1 to 4.5×10^7 cells/mL) were washed twice with water after centrifugation to separate cells into a packed pellet from the supernatant liquid. The washed cells in pellet form were suspended in 20 μL of EPPS buffer (50 mM at pH 8.0) and 30 μL of water. […]
The mixture of glycated protein and bacterial cells was left at 25° C. for 15 minutes. The mixture was then centrifuged at 30,000 rpm for 30 minutes after which the bacterial cells formed a pellet at the bottom of the tube and were washed with water 4-5 times (50 μL). Centrifugation allows separation of glycoprotein bound to the bacteria cells from unbound glycated protein(s).
After washing, the bacterial pellets were suspended in 50 μL of borate buffer (25 mM at pH 9.0). A 5 μL aliquot of the suspension was assayed for detection of ALP binding by adding 5 μL of para-nitrophenol phosphate (PNPP, 100 mM), 50 μL sodium borate buffer (25 mM at pH 9.0) and 140 μL of water. […] The color was read at 405 nm using an ELISA plate reader between 15-30 min; the absorbance is directly proportional to the amount of ALP bound to the bacteria cell.

[3] = system: Escherichia Coli (E. Coli); experiment: Bacteria assay by binding of intestinal ALP (Example 1, FIG. 8, Table 1)
Description: as §1

[4] = system: Lactobacillus; experiment: ALP binding compared to Sf (Table 1)
Description: as §1, §2

[5] = system: Staphylococcus aureus & saprophyicus; experiment: ALP binding compared to Sf (Table 1)
Description: as §1, §2

[6] = system: Coagulase negative staphylococcus sp.; experiment: ALP binding compared to Sf (Table 1)
Description: as §1, §2

B1: ALP: bovine intestinal alkaline phosphatase, glycoprotein enzyme that binds bacteria and serves as label (protein, UniProt P19111 20-506, looked up)
Intestinal-type alkaline …: LVPVEEEDPAFWNRQAAQALDVAKKLQPIQTAAKNVILFLGDGMGVPTVTATRILKGQMNGKLGPETPLAMDQFPYVALSKTYNVDRQVPDSAGTATAYLCGVKGNYRTIGVSAAARYNQCKTTRGNEVTSVMNRAKKAGKSVGVVTTTRVQHASPAGAYAHTVNRNWYSDADLPADAQMNGCQDIAAQLVNNMDIDVILGGGRKYMFPVGTPDPEYPDDASVNGVRKRKQNLVQAWQAKHQGAQYVWNRTALLQAADDSSVTHLMGLFEPADMKYNVQQDHTKDPTLQEMTEVALRVVSRNPRGFYLFVEGGRIDHGHHDDKAYMALTEAGMFDNAIAKANELTSELDTLILVTADHSHVFSFGGYTLRGTSIFGLAPSKALDSKSYTSILYGNGPGYALGGGSRPDVNDSTSEDPSYQQQAAVPQASETHGGEDVAVFARGPQAHLVHGVEEETFVAHIMAFAGCVEPYTDCNLPAPTTATSIPD
Which results are given for B1?
ALP binding to bacterial strains tested [1]: binding occurred to all other gram negative and positive bacteria; ALP binding to bacterial strains tested ([1]; listed as intestinal ALP): binding to all bacterial strains tested; amount of ALP bound or activity generated versus amount of bacteria cells ([1]; FIG. 9): directly proportional to the amount of bacteria cells present; difference of ALP binding between strains relative to S. facaelis or E. coli ([1]; changes of strain among gram negative and positive bacteria): ≤ 12%; O.D. at 405 nm, With ALP ([2]; No. cation): 0.30 O.D.; bacteria concentration at which ALP binding could be monitored ([2]; different strains of bacteria, 1 mM Zn^2+, FIG. 12): 10^5; ALP binding relative to E. coli ([3]; Escherichia coli): 100%; ALP binding to bacteria (ALP activity of suspended cells after ALP treatment and washings) ([3]; gram negative, strains # 9 and 14, FIG. 8): found to bind the ALP; ALP binding relative to sf. [4]: 100%; ALP binding relative to sf. [5]: 100%; ALP binding relative to sf. [6]: 88%
